In article PMC10196373, “Conformational analysis and interaction of the Staphylococcus aureus transmembrane peptidase AgrB with its AgrD propeptide substrate” (Frontiers in Chemistry, 2023):

B1: AgrD1 with C-terminal LgBiT (agrDCL) (peptide)
chain: MNTLFNLFFDFITGILKNIGNIAAYSTCDFIMDEVEVPKELTQLHE
notes: AgrD1 pro-peptide of S. aureus agr group 1; PCR-amplified agrD1 put in place of agrB1 in the split luciferase plasmid; A 16 amino acid flexible linker joins AgrD and LgBiT; also called pAgrDCL; AgrD-LgBit; source: S. aureus SH1000, from the agr P2 promoter on low copy plasmid pSK5630, in live cells; not shown: LgBiT (NanoBiT), C-terminal, kept
B2: T7-AgrD1, AIP pro-peptide AgrD1 with a 14 residue T7 epitope leader tag (peptide)
peptide: MNTLFNLFFDFITGILKNIGNIAAYSTCDFIMDEVEVPKELTQLHE
notes: AgrD1 pro-peptide of S. aureus agr group 1; also called AgrD-T7; T7-tagged AgrD; source: synthetic peptide (solid phase synthesis), bought: CS Bio

Assays:
[1] = target: T1, AgrB1 with C-terminal SmBiT (agrBCS) (Staphylococcus aureus, UniProt P0C1P7 1-189); assay: split reporter (BiFC, NanoBiT); live S. aureus SH1000 cells; one tagged fusion on the chromosome (attB2), the other on a low copy plasmid, both from the agr P2 promoter; cells at OD600 1.0, Nano-Glo live cell reagent (furimazine), bioluminescence (RLU); settings: partners not purified
T1 construct: AgrB1, transmembrane peptidase of S. aureus agr group 1; agrB1 gene amplified with its upstream P2 promoter; A 16 amino acid flexible linker joins AgrB and SmBiT; also called AgrB-SmBiT; pSK-P2-agrBCS; source: S. aureus SH1000, from the agr P2 promoter, chromosomal (attB2) or on low copy plasmid pSK5630, in live cells; not shown: SmBiT (NanoBiT), C-terminal, kept
T1 sequence: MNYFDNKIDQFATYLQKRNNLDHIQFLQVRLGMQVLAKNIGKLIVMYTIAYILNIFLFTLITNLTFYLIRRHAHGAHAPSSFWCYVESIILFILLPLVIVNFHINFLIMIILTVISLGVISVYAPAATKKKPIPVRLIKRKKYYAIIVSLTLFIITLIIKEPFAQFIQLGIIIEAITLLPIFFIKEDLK

[2] = target: the molecule itself; assay: new band of the complex on Tris-glycine gel, Western blot; purified AgrB with DOPG (1 mg/mL) incubated with T7-AgrD1 (2 uM) 30 min at 37 C in 20 mM Tris-HCl pH 7.5, 5 mM MgSO4; heated to 55 C for 5 min in SDS sample buffer, 14% Tris-glycine gel without SDS; blots probed with an AgrB nanobody or an anti-T7 antibody

| Binder | luminescent signal relative to the other constructs [1] | binding result [2] |
| --- | --- | --- |
| B1 | > 10 times | – |
| B2 | – | binds |
